Test results as given in the nanobody polyreactivity screen of Harvey et al. (2022).

Assay: yeast display, Sf9 membrane polyspecificity reagent, FACS + sequencing; frameworks hold sequencing errors
Procedure, shortened: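 Using colony PCR, genes from sorted yeast display clones were amplified, then sequenced on MiSeq at 2 × 250 and filtered by CDR length. The clones had been stained with 10% biotinylated, detergent-solubilized Sf9 membrane reagent for 1 hour at 4 °C and sorted by FACS into low and high (top ~1%) gates on anti-HA and streptavidin fluorescence. Polyreactivity labels come from the gate of origin.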

| Sequence | polyreactivity (PSR sort gate) |
| --- | --- |
| QVQLVESGGGLVHAGVSLRISCAASGRIFKQYAMGWYRQAPGNERELVAAISVRGGITYYADSVKGRFTISRYHAKNTVYLQMKSLNPEDTAVYYCAKRSYRNHTYDYWGQGTQVTVSS | low polyreactivity |
| QVQLVESGGGLVHGGGSLSLSFDASGSIFRVYPMGWYSPAPGKERELVAAIDSGPSTTYADCVTGRFTISRDNAKNTVYLLMNRLKPVDTEVYCFAADGWLWSFTGDGWWFDYWGQGTQVSVSS | low polyreactivity |
| QVQLVESGGGLVHSGGSLRLSCAASGRIFLPYGMGWYRKAPGKERELVATITIGGSTTYADSVKGRFTISRDNAKNTVYLLMNSLKPEDTAVYYCAVLRWVYYLHGYDYWGHGTQVTVSS | low polyreactivity |
| QVQLVESGGGLVKAGAILRLSCPASGSTFQSYAKGWSRQEPGKESELVAAISSGGITYYADSVKGRFTISRDNAKNTVYFQMNSLKPEDTAVYYCAKVPTYLISNRYSRYDYWGQGTQVTVSS | low polyreactivity |
| QVQLVESGGGLVKAGCSLRLICAASGSIFYQYAMGWNRQAPGNVRELVAAITRRGSRTYYADSVKGRFTISRDNAKNTVYLQMNSLKPEDTAVYYCAAGSFYGIYYYRTDDYWGQGTQVTVSS | high polyreactivity |
| QVQLVESGGGLVKAGGILRLSCAASGYIFVRYAMGWYRQAPGKERELVAAISYRGGSTYADSVKGRFTISRDNAKNTVYLQMNRLKPEDTAVYYCAAQRWYVYGQKYHYGYWGQVTQVTVSS | high polyreactivity |
| QVQLVESGGGLVKAGGSIRLSCAASGSIFTWYAMGWYRQAPGKESELVAAISEDGGSTYYADSVKGRFTISRDNAKNSVFLQMNSLKPEDTAVYYCATPVASVTGYDYWGQGTQVTVSS | low polyreactivity |
| QVQLVESGGGLVKAGGSLLLSCAASGRTIAYNAMGWYRQATGKERELVDAISNSGGRTYYADSVKGRFTISRDNAKNTVYLQMKSLKPEDTAVYYCAAYPVYRSVVSAYGYNYWGQGTQVTVSS | high polyreactivity |
| QVQLVESGGGLVKAGGSLLLSCAASGSTFRVNFMGWYRKSPGKERELVAAITTSGGSKYYADSVKGRFTITRDNAKNSVFLQMNSEKLDDTAVYFCNTTYPSGWGPETDYWGQGIQVTVSS | low polyreactivity |
| QVQLVESGGGLVKAGGSLRLRCAAAGLILYPYAMGWYRQAPGKESELVAAITSDGSTYYADSVKGRFTISRVNAKNTVYLQMNSLKQEDTAVYYCAVVVAYFDDDYGLSWFYEYDYWGQGTQVTVSS | low polyreactivity |
| QVQLVESGGGLVKAGGSLRLSCAASGFIFGYNAMGWDRQAPGKERELVAVITDSSDSTYYADSVKGRFTISRDNAMNTVYLQMNSLKPEDTAVYYCDTDYGYAGDYWGQGTQVTVSS | low polyreactivity |
| QVQLVESGGGLVKAGGSLRLSCAASGFILRAYAMGWYRQAPGKEREFVAAITRRGGRTYYADSVKGRFTISRDNAKKTVSLQMYSLKPEDTAVYYCNRVERRGTYDYWGQGTQVTVSS | high polyreactivity |
| QVQLVESGGGLVKAGGSLRLSCAASGFIYKFYAMGWYRQAPRKERELVAAINYSGGSTYYADSVKGRFTISRDNAKNTVYLKMNSLKPEDTAVFYCNALYTYGWYSDDYWGQGTQVTVSS | high polyreactivity |
| QVQLVESGGGLVKAGGSLRLSCAASGFTFPQYAMGWYRQAPGKESELVAAISKRSGGTRYADSVKGRFTISRDNAKNTVYLQMNSLKPEDTAVYYCAAATPSGYYYWGQGTQVTVSS | high polyreactivity |
| QVQLVESGGGLVKAGGSLRLSCAASGFTFRRNAMGWYRQAPGKERELVAAITYNGGTTYYADSVKGRFTISRDNAKNTVYLQMNSLKPEDTAVDYCNAPYGRQGYDYWGQGTQVTVSS | low polyreactivity |
| QVQLVESGGGLVKAGGSLRLSCAASGGTFPLYAMGWYRQAPGKERELVAAIRWSGGRTYYADSVKGRFTISRDNAKNTVYLQMNSLKPEDTAVYYCSADYDDGWGYDYWGQGTQVTVSS | high polyreactivity |
| QVQLVESGGGLVKAGGSLRLSCAASGNIFRRYAMGWYRQARGKERELVAAITWRGGNTYYADSVKGRFTISRDNAKNTVYLQMNCLKPEDTAVYYCNRVYRQRLGRDYWGLGTQVTVSS | high polyreactivity |
| QVQLVESGGGLVKAGGSLRLSCAASGRIDWYYAMGLYRQAPRKERDLVAAISRSGGTTYYADSVKGRFTISRDNAKNSVFLQMNSLQPEDTEVYYCAAVFHAYTGYEAWEEYEYWGQGTQVTVSA | high polyreactivity |
| QVQLVESGGGLVKAGGSLRLSCAASGRIFRYYAMGRYRQAPGKEREFVAAISTDGGRTYYADSVKGRFTISRDNAKNTVYLQMNSLKPEDTAVYYCAIYPGISGYNYWGQGTQVTVSS | high polyreactivity |
| QVQLVESGGGLVKAGGSLRLSCAASGRTFFRNAMGWYRQAPGKEREFVAAINSSGGSTYYADSVKGRFTISRDNAKNTVYFQMNSLKPEDTAVYYCARYHYPFYKPYGFGYWGQGTQVTVSS | high polyreactivity |
| QVQLVESGGGLVKAGGSLRLSCAASGSIYTNAMGWYRQAPGKERELVAAISWSGGRTYYADSVKGRFTISRDNAKNTVYLQINSLKPEDTAVYYCNPRGTRIASGHYYWGQGTLVTVSS | high polyreactivity |
| QVQLVESGGGLVKAGGSLRLSCAASGSTFPLYAMGWYRQAPGKEREFVAAIRWIGGSTYYADSVKGRFTISRDNAKNTVYLQMNSLKPEDTAVYFCAADYVVSAFDYWGQGTQVTVSS | low polyreactivity |

| Sequence | polyreactivity (PSR sort gate) |
| --- | --- |
| QVQLVESGGGLVKAGGSLRLSCAASGSTFYNYAMGWYRQAPGKERELVAAISTRGGSTYYADSVKGRFTISRDNAKNTVYLQMNSLKPEDTAVYYCAADGRGGHDDYWGQGTQVTVSS | high polyreactivity |
| QVQLVESGGGLVKAGGSLRLSCAASGSTIGGNAMVWYRQAPGKERELVASITRSGGSTYYADSVKGRFTISRDNAKNNVYLQMNSLKPEDSAVYYCAAGKWYRSPWKYDYWGQVTQVTVSS | low polyreactivity |
| QVQLVESGGGLVKAGGSLRLSCAASGSTSQVNDMGWYRQAPGTERELVGAISSTGDRTYYADSVKGRFTISRDNAKNNVYLQMNSLKPDDTAVYYCANDPFPFPCGDYWGQGTQVTVSS | low polyreactivity |
| QVQLVESGGGLVKAGGSLRLSCAASGYTFGKYAMGWYRQAPGKERELVAAISWSGGSTYYADSVKGRFRISRDNAKNTVYLQMNSLKPEDTAVYYCNKGYFGRYGYWGQGTQVTVSS | high polyreactivity |
| QVQLVESGGGLVKAGGSLRLSCASSGRIFRYYTMGWYRQAPGKERELVAAISTSDDSTNYADSVKGRFTISRDNAKNTVYLQMNSLKPEDTAVYYCAADQSRVGSYQDYDYWGQGTQVTVSS | low polyreactivity |
| QVQLVESGGGLVKARGSLLLSCAASGFTFPYNAMGWYRQAPGKDRELVAAISWSGGSTYYADSVKGRFTLSRDNAKNTVYLQMNSLKPEDTAVYYCAASYWWIPMEYWGQVTQVTVSS | high polyreactivity |
| QVQLVESGGGLVKARGSLRLSCAASGFTFGSYAMGWYRQAPGKERELVAAITRGSGGTYYADSVKGRFTISRDNAKNTVYVQMNSLKPEDTAVYNCASCSRSRGALRFAHFDYWGQGTQGTVSS | high polyreactivity |
| QVQLVESGGGLVLAGGRLRLSCAASGSTFGYYAMGWYRQAHGKERELVAAISQGAGRTYYADSVKGRFTISRDNAKNTDYLQMNSLKPEDSAVYYFAASVTVHRWAYGYWGQGTQVTVSS | high polyreactivity |
| QVQLVESGGGLVLAGGSLRLSCAASGGTFARYAMGWYRQAPGKERELVAAISRGGSTNYADSVKGRFTISRDNAKNTVYLQMNSLKPEDTAVYYCAAGSRRAAWYDYSYPYGYWGQGTQVTVSS | high polyreactivity |
| QVQLVESGGGLVLAGGSLRLSCAASGRIFIGNAMGWYRQAPGKERELVAAISKRGGSTYYADSVKGRFTISRDNAKNTVYLQMISLKPEDTAVYYCNKEPLYREFDYWGQGTQVTVSS | low polyreactivity |
| QVQLVESGGGLVLAGGSLRLSCAASGRIFLRNAMGWYRQAPGKVRELVATITSRGGSTYYADSVKGRFTISRDKAKNTVYLQMNSLKPEDTAVYYCAADPRRYRGFGYVYGGFYYWGQGTQVTVSS | low polyreactivity |
| QVQLVESGGGLVLAGGSLRLSCAASGRIFTNNVMGWYRQAPGKERELVAAISRSGGRTYYADSVKGRFTISRDNAKNTVYLQMNSLKPEDTAVYYCAAVYQKAATDKYESVYESYYWGQGTQVTVSS | high polyreactivity |
| QVQLVESGGGLVLAGGSLRLSCAASGRSFVSNALGWSRQAPGSDRELVARISNGASTDADSVKGRFTISRDNAKKTVYLQINSLKPEDTAVYYSAKTTRRGGVALGEYDYWGQLTQVTVSS | low polyreactivity |
| QVQLVESGGGLVLAGGSLRLSCAASGRTFRSYAMGWYRQAPGKERELVAAISSGGSTNYADSVKGRFTISRDNAKNTVYLQMNSLKPEDTAVYYCAATFQLYRFIGYEYWGQGTQVTVSS | high polyreactivity |
| QVQLVESGGGLVLAGGSLRLSCAASGSIFQPNAMGWYRQAPGKERELVASIRGRGGDTYYADSVKGRFTISRDNAKNSVYLQMNSLKPEDTAVDYCAADYRWGQGTQVTVSS | low polyreactivity |
| QVQLVESGGGLVLAGGSLRLSCAASGSTFFSYMGWYREAPGKERELVAANTSGAITYYADSVKGRFTISRDNAKNTVYLQMNSLKPEDTAVYYCNTDRYYVTLRNLEMDYWGQGTQVTVSS | low polyreactivity |
| QVQLVESGGGLVLAGGSLRLSCAASRFILRDNGMGWNRKAPVKERELVAAISERGGRTDYADSVKGRFTISRDNAKNTVYLQMNSLKPEDTAVYYCAAEDIANFYYWGQGPQVTVSS | high polyreactivity |
| QVQLVESGGGLVLAGGSLRLSCADSGLILRLNAMGWYRQAPGKDRELVATINRGGSTNYADSVKGRFTISRDNAKNTVFLQMNSLNPEDTAVDYCNKARTSQYHHTYWRTYGYWGQGTQVTVSS | low polyreactivity |
| QVQLVESGGGLVLAGGSLRLSGAASGRISGYNVLGWARQAAGKERELVAAISGSGGSTYYADSVKGRFTISRDNAKNTVYLQMNSLKPEDTADYYCGKATGYPYDYWGHGTQVTVSS | low polyreactivity |
| QVQLVESGGGLVLAGGSLRLSSAASGSIFYRNAMGWYRQSPGKERQLVATITVNGGRTYYADSVKGRFTISRDIAKNTVYLQMNSLKPEDTAVYYCAKDVHRWYPYDYCGQGTQVTVSS | low polyreactivity |
| QVQLVESGGGLVLAGVSLRLSCAASGSTFPYNAMGWYRQAPGKERELVAAITSRGGSTYYADSVKGRFTISRDNAKNTVYLQMNSLKPEDTAVYYCATPGDTYGWTRRRYYYWGQGTQVTVSS | high polyreactivity |
